Laboratory results published in US7750123B2.

Substrate: S protein of GD03T on pseudotyped HIV virus (SARS-CoV (GD03T0013 isolate))

B1: 80R IgG1 (antibody, V domains shown)
VH: EVQLVQSGGGVVQPGKSLRLSCAASGFAFSSYAMHWVRQAPGKGLEWVAVISYDGSNKYYADSVKGRFTISRDNSKNTLYLQMNSLRAEDTAVYYCARDRSYYLDYWGQGTLVTVSS
VL: ETTLTQSPATLSLSPGERATLSCRASQSVRSNLAWYQQKPGQAPRPLIYDASTRATGIPDRFSGSGSGTDFTLTISRLEPEDFAVYYCQQRSNWPPTFGQGTKVEVK
- inhibition of pseudoviral infection of ACE2-expressing 293T cells (luciferase): > 50 µg/mL
